The record followed here is US20100028924.

In this data set the target is rHDL-apoA-I (reconstituted discoidal HDL particles carrying apolipoprotein A-I).

Changes are numbered by the printed parent chain.

B1: wt rePON1-192K (protein)
chain: MAKLTALTLLGLGLALFDGQKSSFQTRFNVHREVTPVELPNCNLVKGVDNGSEDLEILPNGLAFISSGLKYPGIMSFDPDKSGKILLMDLNEEDPVVLELGITGNTLDISSFNPHGISTFTDEDNTVYLLVVNHPDSSSTVEVFKFQEEEKSLLHLKTIRHKLLPSVNDIVAVGPEHFYATNDHYFADPYLKSWEMHLGLAWSFVTYYSPNDVRVVAEGFDFANGINISPDGKYVYIAELLAHKIHVYEKHANWTLTPLKSLDFDTLVDNISVDPVTGDLWVGCHPNGMRIFYYDPKNPPGSEVLRIQDILSEEPKVTVVYAENGTVLQGSTVAAVYKGKLLIGTVFHKALYCEL
B1 displayed an A2 (%), amplitude of the slow phase of inactivation on apoA-I rHDL of 100%; a Kapp (µM), substrate TBBL of 0.5 µM; a Kapp (µM), substrate paraoxon of 0.6 µM; a Kapp (µM), substrate phenyl acetate of 0.5 µM. Moreover, the Kapp (µM), substrate γ-dodecanoic lactone amounted to 1.2 µM; the Kapp (µM), substrate δ-nonanoic lactone came to 1.3 µM; the Kapp (µM), substrate δ-valerolactone is 1.3 µM; the Vmax (%), enzymatic activation by apoA-I rHDL, substrate TBBL is 791%. The Vmax (%), enzymatic activation by apoA-I rHDL, substrate paraoxon was found to be 222%; the Vmax (%), enzymatic activation by apoA-I rHDL, substrate phenyl acetate is 425%; the Vmax (%), enzymatic activation by apoA-I rHDL, substrate γ-dodecanoic lactone stood at 1830%; the Vmax (%), enzymatic activation by apoA-I rHDL, substrate δ-nonanoic lactone was determined as 1580%. Besides, the Vmax (%), enzymatic activation by apoA-I rHDL, substrate δ-valerolactone worked out at 1720% and the “fold higher fraction of HDL-bound protein than the Q isozyme (from inactivation/stability measurements; reference rePON1-192Q)” value is reported as “a 3-fold higher fraction of HDL-bound protein as revealed from the stability measurements”.

B2: rePON1-192R (protein)
chain: B1 chain with K192R
Protein B2 yielded an A2 (%), amplitude of the slow phase of inactivation on apoA-I rHDL of 90%; a Kapp (µM), substrate TBBL of 0.4 µM; a Kapp (µM), substrate paraoxon of 0.8 µM; a Kapp (µM), substrate phenyl acetate of 0.8 µM. The Kapp (µM), substrate γ-dodecanoic lactone was 0.9 µM; the Kapp (µM), substrate δ-nonanoic lactone amounted to 1.5 µM; the Kapp (µM), substrate δ-valerolactone was 1.1 µM; the Vmax (%), enzymatic activation by apoA-I rHDL, substrate TBBL stood at 579%. The Vmax (%), enzymatic activation by apoA-I rHDL, substrate paraoxon is 200%; the Vmax (%), enzymatic activation by apoA-I rHDL, substrate phenyl acetate is 336%; the Vmax (%), enzymatic activation by apoA-I rHDL, substrate γ-dodecanoic lactone was 1260%; the Vmax (%), enzymatic activation by apoA-I rHDL, substrate δ-nonanoic lactone worked out at 1350%. The Vmax (%), enzymatic activation by apoA-I rHDL, substrate δ-valerolactone worked out at 1400%; the “fold higher fraction of HDL-bound protein than the Q isozyme (from inactivation/stability measurements; reference rePON1-192Q)” value is “a 3-fold higher fraction of HDL-bound protein as revealed from the stability measurements”; the “reduction of Vmax of stimulation by rHDL compared to wt rePON1-192K” value is given as 10-30% reduction of Vmax.

B3: rePON1-192Q (protein)
chain: B1 chain with K192Q
Protein B3 displayed an A2 (%), amplitude of the slow phase of inactivation on apoA-I rHDL of 70%; a Kapp (µM), substrate TBBL of 0.5 µM; a Kapp (µM), substrate paraoxon of 0.8 µM; a Kapp (µM), substrate phenyl acetate of 0.8 µM. The Kapp (µM), substrate γ-dodecanoic lactone is 0.6 µM; the Kapp (µM), substrate δ-nonanoic lactone stood at 0.6 µM; the Kapp (µM), substrate δ-valerolactone is 1.1 µM; the Vmax (%), enzymatic activation by apoA-I rHDL, substrate TBBL is 340%. The Vmax (%), enzymatic activation by apoA-I rHDL, substrate paraoxon came to 128%; the Vmax (%), enzymatic activation by apoA-I rHDL, substrate phenyl acetate was 165%; the Vmax (%), enzymatic activation by apoA-I rHDL, substrate γ-dodecanoic lactone was 382%; the Vmax (%), enzymatic activation by apoA-I rHDL, substrate δ-nonanoic lactone amounted to 778%. Also, the Vmax (%), enzymatic activation by apoA-I rHDL, substrate δ-valerolactone came out at 481% and the “reduction of Vmax of stimulation by rHDL compared to wt rePON1-192K” value is on record as 50-80% reduction of Vmax compared to wt rePON1-192K.

B4: human PON1-192R (protein)
chain: AKLIALTLLGMGLALFRNHQSSYQTRLNALREVQPVELPNCNLVKGIETGSEDLEILPNGLAFISSGLKYPGIKSFNPNSPGKILLMDLNEEDPTVLELGITGSKFDVSSFNPHGISTFTDEDNAMYLLVVNHPDAKSTVELFKFQEEEKSLLHLKTIRHKLLPNLNDIVAVGPEHFYGTNDHYFLDPYLRSWEMYLGLAWSYVVYYSPSEVRVVAEGFDFANGINISPDGKYVYIAELLAHKIHVYEKHANWTLTPLKSLDFNTLVDNISVDPETGDLWVGCHPNGMKIFFYDSENPPASEVLRIQNILTEEPKVTQVYAENGTVLQGSTVASVYKGKLLIGTVFHKALYCEL
As for B4, the A2 (%), amplitude of the slow phase of inactivation on apoA-I rHDL worked out at 87%; the “activation level of lactonase activity by rHDL-apoA-I, against 192Q” value is on record as “about 2-fold higher activation level than 192Q”; the “stated: enzymatic activity stimulated by a 50-fold molar excess of rHDl-apoA-I (% Activity Stimulation, delipidated enzyme as reference), six substrates [panel B]” value was “dark bars: about 650 to 750 % with γ-dodecanoic lactone, δ-valerolactone and δ-nonanoic lactone, about 450 % with TBBL, about 200 to 250 % with phenyl acetate and paraoxon; higher than the 192Q bar with every lactone”.

B5: human PON1-192Q (protein)
chain: B4 chain with R191Q
In the case of B5, the A2 (%), amplitude of the slow phase of inactivation on apoA-I rHDL came out at 72%; the “stated: enzymatic activity stimulated by a 50-fold molar excess of rHDl-apoA-I (% Activity Stimulation, delipidated enzyme as reference), six substrates [panel B]” value was “white bars: about 280 % with γ-dodecanoic lactone, about 420 to 440 % with δ-valerolactone and δ-nonanoic lactone, about 250 % with TBBL, about 170 to 210 % with phenyl acetate and paraoxon; lower than the 192R bar with every lactone, close to it with phenyl acetate and paraoxon”.
